The text below walks through data of PMC7137648.

Common to all, as to conditions: glycan lost; control: wild-type SR-F1(20-421)
The nature of data set [1]: MALDI-TOF mass, SDS-PAGE, N-terminal sequencing.
Data set [2] in a line: limited tryptic and chymotryptic proteolysis, SDS-PAGE.
Data set [3] can be described thus: Ni-NTA purified yield from 293-F supernatant.

B1: SR-F1 (SREC-I, SCARF1): N289Q (protein)
parent chain: MGLGLLLPLLLLWTRGTQGSELDPKGQHVCVASSPSAELQCCAGWRQKDQECTIPICEGPDACQKDEVCVKPGLCRCKPGFFGAHCSSRCPGQYWGPDCRESCPCHPHGQCEPATGACQCQADRWGARCEFPCACGPHGRCDPATGVCHCEPGWWSSTCRRPCQCNTAAARCEQATGACVCKPGWWGRRCSFRCNCHGSPCEQDSGRCACRPGWWGPECQQQCECVRGRCSAASGECTCPPGFRGARCELPCPAGSHGVQCAHSCGRCKHNEPCSPDTGSCESCEPGWNGTQCQQPCLPGTFGESCEQQCPHCRHGEACEPDTGHCQRCDPGWLGPRCEDPCPTGTFGEDCGSTCPTCVQGSCDTVTGDCVCSAGYWGPSCNASCPAGFHGNNCSVPCECPEGLCHPVSGSCQPGSGSRDTALIAGSLVPLLLLFLGLACCACCCWAPRSDLKDRPARDGATVSRMKLQVWGTLTSLGSTLPCRSLSSHKLPWVTVSHHDPEVPFNHSFIEPPSAGWATDDSFSSDPESGEADEVPAYCVPPQEGMVPVAQAGSSEASLAAGAFPPPEDASTPFAIPRTSSLARAKRPSVSFAEGTKFAPQSRRSSGELSSPLRKPKRLSRGAQSGPEGREAEESTGPEEAEAPESFPAAASPGDSATGHRRPPLGGRTVAEHVEAIEGSVQESSGPVTTIYMLAGKPRGSEGPVRSVFRHFGSFQKGQAEAKVKRAIPKPPRQALNRKKGSPGLASGSVGQSPNSAPKAGLPGATGPMAVRPEEAVRGLGAGTESSRRAQEPVSGCGSPEQDPQKQAEEERQEEPEYENVVPISRPPEP
For B1, the “other: proteolytic processing” value in data set [1] was “increases, extra loss of 2.3–2.6 kDa compared with the N382Q and N393Q mutants”. The structure_or_conformation entry in data set [2] was “no change”. Further, the “expression_or_secretion, other: protein purified per 100 ml supernatant” value (“expression_or_secretion … per 100 ml supernatant” below) in data set [3] was “decreases, 70 vs 450”.

B2: SR-F1 (SREC-I, SCARF1): N393Q (protein)
parent chain: B1 parent chain
As for B2, in data set [2], the structure_or_conformation entry is recorded as “no change”. Besides, the “expression_or_secretion … per 100 ml supernatant” value in data set [3] is given as “decreases, 200 vs 450”.

B3: SR-F1 (SREC-I, SCARF1): N382Q (protein)
parent chain: B1 parent chain
Consider B3, for which, in data set [2], the structure_or_conformation result is given as “no change”. The “expression_or_secretion … per 100 ml supernatant” value in data set [3] was “decreases, 85 vs 450”.
